In paper PMC12326000:

Target: CanA from Pyrodictium abyssi (recombinant full-length CanA) (Pyrodictium abyssi)
Experiment: 1H NMR signal decay during polymerization; 0.97 mM CanA in 50 mM Tris-HCl, 50 mM NaCl, pH 7.5, 10% D2O, 0.4 mM DSS; polymerization started by MgCl2 and CaCl2 to 20 mM each; 298 K; about 42 h; intensity of -0.6 to 0.1 ppm fitted by single or double exponential

Question: For “CanA from Pyrodictium abyssi (recombinant full-length CanA) (natural protein)”, which critical CanA concentration for polymerization is on record?
Answer: Its critical CanA concentration for polymerization is 2.48 µM.
